Target: T1, 1CARD-SUMO (caspase-1 CARD with carboxy-terminal SUMO, after TEV cleavage of MBP-1CARD-SUMO) (human, UniProt P29466 1-91)
T1 sequence (looked up): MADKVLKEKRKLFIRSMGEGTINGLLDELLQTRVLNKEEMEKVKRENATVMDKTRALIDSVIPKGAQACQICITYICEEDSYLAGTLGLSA
Assay: cross-linking

fold decrease in 1CARD oligomer with SERPINB1 against without SERPINB1: 4.18 fold
fold increase in 1CARD monomer with SERPINB1 against without SERPINB1: 7.48 fold
B1: SERPINB1, purified, amino-terminal SUMO cleaved (natural protein, human, UniProt P30740 1-379, looked up)
chain: MEQLSSANTRFALDLFLALSENNPAGNIFISPFSISSAMAMVFLGTRGNTAAQLSKTFHFNTVEEVHSRFQSLNADINKRGASYILKLANRLYGEKTYNFLPEFLVSTQKTYGADLASVDFQHASEDARKTINQWVKGQTEGKIPELLASGMVDNMTKLVLVNAIYFKGNWKDKFMKEATTNAPFRLNKKDRKTVKMMYQKKKFAYGYIEDLKCRVLELPYQGEELSMVILLPDDIEDESTGLKKIEEQLTLEKLHEWTKPENLDFIEVNVSLPRFKLEESYTLNSDLARLGVQDLFNSSKADLSGMSGARDIFISKIVHKSFVEVNEEGTEAAAATAGIATFCMLMPEENFTADHPFLFFIRHNSSGSILFLGRFSSP
